In patent US20210364527A1:

Target: FA peptide (N-terminal phenylalanine, penultimate alanine; rest of sequence not given)
Assay: fluorescence polarization

B1: PS609 (Bis-atClpS2-V1, Linker 1) (designed binder)
chain: MSDSPVDLKPKPKVKPKLERPKLYKVMLLNDDYTPMSFVTVVLKAVFRMSEDTGRRVMMTAHRFGSAVVVVCERDIAETKAKEATDLGKEAGFPLMFTTEPEEGGGSGGGSGGGSGMSDSPVDLKPKPKVKPKLERPKLYKVMLLNDDYTPMSFVTVVLKAVFRMSEDTGRRVMMTAHRFGSAVVVVCERDIAETKAKEATDLGKEAGFPLMFTTEPEEGHHHHHHHHHHGGGSGGGSGGGSGLNDFFEAQKIEWHEGGGSGGGSGGGSGLNDFFEAQKIEWHE
In the case of B1, the Kd is reported as 221 nM.

B2: PS611 (Bis-atClpS2-V1, Linker 3) (designed binder)
chain: MSDSPVDLKPKPKVKPKLERPKLYKVMLLNDDYTPMSFVTVVLKAVFRMSEDTGRRVMMTAHRFGSAVVVVCERDIAETKAKEATDLGKEAGFPLMFTTEPEEGSAGSAAGSGEFGSAGSAAGSGEFGSAGSAAGSGEFMSDSPVDLKPKPKVKPKLERPKLYKVMLLNDDYTPMSFVTVVLKAVFRMSEDTGRRVMMTAHRFGSAVVVVCERDIAETKAKEATDLGKEAGFPLMFTTEPEEGHHHHHHHHHHGGGSGGGSGGGSGLNDFFEAQKIEWHEGGGSGGGSGGGSGLNDFFEAQKIEWHE
B2 was tested, and the Kd was 137 nM.
